Test results from article PMC10041110.

Target: Chikungunya virus nonstructural protein 1 (nsP1) capping pore (Chikungunya virus)
Test: cryo-EM structure

## Chikungunya virus nonstructural protein 1 (nsP1) capping pore (enzyme)
  stoichiometry N: 12
